Test [1] has as its target T1, biotinylated human FcRn/β2m (human, UniProt P55899 24-297; P61769 21-119, biotinylated (Biotin-NHS amine chemistry or BirA biotin ligase; site not stated)).
T1 construct: The soluble human FcRn/β2m after biotinylation, tethered on streptavidin or neutravidin chips; also called surface-captured biotinylated human FcRn complexed with β2m
In words: SPR, surface-bound huFcRn/b2m, pH 7.3. Background: Surface plasmon resonance follows binding to a sensor surface in real time, without labels.

The target in test [2] is T2, soluble recombinant human FcRn/β2m (human, UniProt P55899 24-297; P61769 21-119).
T2 construct: About 42 kDa; also called HuFcRn/b2m; huFcRn/b2m
In words: SPR, ligand on surface, soluble HuFcRn/b2m as analyte; pH not printed with the table (paragraph 351 speaks of pH 6.0).

Test [3] concerns the target T1, biotinylated human FcRn/β2m. In words: SPR, biotinylated FcRn/β2m on streptavidin or neutravidin chip, antagonist as analyte (avidity conditions), pH 7.3.
Test [4] has the same target. Briefly: SPR, biotinylated FcRn/β2m on streptavidin or neutravidin chip, antagonist as analyte (avidity conditions), pH 7.3; column head printed ka (1/s).
The next test concerns the target T3, Human IgG1 Fc (huG1Fc) (human, UniProt P0DOX5 218-449 = IgG part).
T3 construct: Wild-type Fc control, directly immobilised on the chip; also called G1Fc homodimer
Briefly: SPR, ligand directly immobilised, soluble Fcγ receptor as analyte, pH 7.3.

T2 sequence (P55899 24-297 limits assumed, chain 1 of 2): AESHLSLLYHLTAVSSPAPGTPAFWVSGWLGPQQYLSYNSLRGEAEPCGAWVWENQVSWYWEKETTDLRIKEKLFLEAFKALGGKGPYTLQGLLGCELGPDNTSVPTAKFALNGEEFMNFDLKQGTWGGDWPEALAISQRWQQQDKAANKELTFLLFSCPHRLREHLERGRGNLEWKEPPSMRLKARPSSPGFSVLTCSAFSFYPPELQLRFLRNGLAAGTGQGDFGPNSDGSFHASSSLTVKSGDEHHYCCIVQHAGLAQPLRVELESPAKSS
T2 sequence (P61769 21-119 limits assumed, chain 2 of 2): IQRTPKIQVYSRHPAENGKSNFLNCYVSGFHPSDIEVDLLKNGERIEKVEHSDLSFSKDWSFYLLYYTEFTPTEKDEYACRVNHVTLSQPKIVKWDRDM
T1 sequence (P55899 24-297 limits assumed, chain 1 of 2): as the sequence (P55899 24-297 limits assumed, chain 1 of 2) above
T1 sequence (P61769 21-119 limits assumed, chain 2 of 2): as the sequence (P61769 21-119 limits assumed, chain 2 of 2) above

B1: Vyvgart (other)
chain: DKTHTCPPCPAPELLGGPSVFLFPPKPKDTLYITREPEVTCVVVDVSHEDPEVKFNWYVDGVEVHNAKTKPREEQYNSTYRVVSVLTVLHQDWLNGKEYKCKVSNKALPAPIEKTISKAKGQPREPQVYTLPPSRDELTKNQVSLTCLVKGFYPSDIAVEWESNGQPENNYKTTPPVLDSDGSFFLYSKLTVDKSRWQQGNVFSCSVMHEALKFHYTQKSLSLSPGK
notes: also called Efgartigimod; commercially available Vyvgart product
B1 showed a Kd in test [1] of 2.3 nM.

B2: huG1FcYPY (other)
chain: EPKSCDKTHTCPPCPAPELLGGPSVFLFPPKPKDTLYISRTPEVTCVVVDVSHEDPEVKFNWYVDGVEVHNAKTKPREEQYNSTYRVVSVLTPLHQDWLNGKEYKCKVSNKALPAPIEKTISKAKGQPREPQVYTLPPSRDELTKNQVSLTCLVKGFYPSDIAVEWESNGQPENNYKTTPPVLDSDGSFFLYSKLTVDKSRWQQGNVFSCSVMHEALHYHYTQKSLSLSPGK
notes: Fc fragment alone; also called G1FcYPY homodimer
For orientation: koff means the first-order rate constant of dissociation. As a reminder, the kon is a measure of how fast the partners come together. With B2, the Kd in test [2] stood at 16.9 nM; in test [3] it was 1.1 nM. Further, the koff in test [2] was determined as 0.00525 s⁻¹; in test [4], 0.000532 s⁻¹. The values for the kon in test [2] and in test [3] were 311000 M⁻¹ s⁻¹ and 492000 M⁻¹ s⁻¹, respectively.

B3: huG1FcYTEKF (other)
chain: EPKSCDKTHTCPPCPAPELLGGPSVFLFPPKPKDTLYITREPEVTCVVVDVSHEDPEVKFNWYVDGVEVHNAKTKPREEQYNSTYRVVSVLTVLHQDWLNGKEYKCKVSNKALPAPIEKTISKAKGQPREPQVYTLPPSRDELTKNQVSLTCLVKGFYPSDIAVEWESNGQPENNYKTTPPVLDSDGSFFLYSKLTVDKSRWQQGNVFSCSVMHEALKFHYTQKSLSLSPGK
notes: Human IgG1 Fc with M252Y, S254T, T256E, H433K, N434F, modelled on efgartigimod with five more N-terminal residues (EPKSC); Fc dimer is to be expected; also called benchmark molecule
B3: in test [3], the Kd was found to be 2.4 nM and the on-rate constant (kon) was 970000 M⁻¹ s⁻¹. This molecule showed a koff in test [4] of 0.00236 s⁻¹.

B4: human FcγRI (CD64) (receptor, UniProt P12314 16-292, looked up)
chain: QVDTTKAVITLQPPWVSVFQEETVTLHCEVLHLPGSSSTQWFLNGTATQTSTPSYRITSASVNDSGEYRCQRGLSGRSDPIQLEIHRGWLLLQVSSRVFTEGEPLALRCHAWKDKLVYNVLYYRNGKAFKFFHWNSNLTILKTNISHNGTYHCSGMGKHRYTSAGISVTVKELFPAPVLNASVTSPLLEGNLVTLSCETKLLLQRPGLQLYFSFYMGSKTLRGRNTSSEYQILTARREDSGLYWCEAATEDGNVLKRSPELELQVLGLQLPTPVWFH
notes: extracellular domain; also called FcyRI (CD64)
Consider B4, for which the Kd with Human IgG1 Fc (huG1Fc) came out at 0.086 nM.

The values are drawn from patent US20260209357A1 (CSL INNOVATION, published 2026).
